Series [1] concerns the target T1, Hsp90Ec N347C (E. coli, UniProt P0A6Z3 1-624, N347C). Description: cross-linking.
For series [2], the target named is T2, Hsp90Ec K199C (E. coli, UniProt P0A6Z3 1-624, K199C). Description: cross-linking.
The target in series [3] is T3, Hsp90Ec wild-type (E. coli, UniProt P0A6Z3 1-624). Description: cross-linking.
The target in a further series is Hsp90Ec K45C (E. coli, UniProt P0A6Z3 1-624, K45C). Kind of series: cross-linking.
The target of the next series is Hsp90Ec K71C (E. coli, UniProt P0A6Z3 1-624, K71C). Kind of series: cross-linking.
Another series addresses Hsp90Ec K99C (E. coli, UniProt P0A6Z3 1-624, K99C). Description: cross-linking.
The next series has as its target Hsp90Ec K103C (E. coli, UniProt P0A6Z3 1-624, K103C). Description: cross-linking.
Series [4] concerns the target T2, Hsp90Ec K199C. Description: cross-linking. This is another data set of the same source.
For the next series, the target named is Hsp90Ec K354C (E. coli, UniProt P0A6Z3 1-624, K354C). Kind of series: cross-linking.
A further series deals with Hsp90Ec K238C (E. coli, UniProt P0A6Z3 1-624, K238C). Description: cross-linking.
The target in series [5] is T1, Hsp90Ec N347C. Kind of series: cross-linking. This is another data set of the same source.
The series “cross-linking” concerns the molecule itself. Description: cross-linking.
The target of a further series is Hsp90Ec N347C/D80N (E. coli, UniProt P0A6Z3 1-624, N347C | D80N). Description: cross-linking.
Another series deals with Hsp90Ec N350C (E. coli, UniProt P0A6Z3 1-624, N350C). Description: cross-linking.
A further series addresses T4, biotin-labeled Ydj1 (S. cerevisiae, UniProt P25491 1-409, biotin label (site not stated)).
T4 sequence (looked up): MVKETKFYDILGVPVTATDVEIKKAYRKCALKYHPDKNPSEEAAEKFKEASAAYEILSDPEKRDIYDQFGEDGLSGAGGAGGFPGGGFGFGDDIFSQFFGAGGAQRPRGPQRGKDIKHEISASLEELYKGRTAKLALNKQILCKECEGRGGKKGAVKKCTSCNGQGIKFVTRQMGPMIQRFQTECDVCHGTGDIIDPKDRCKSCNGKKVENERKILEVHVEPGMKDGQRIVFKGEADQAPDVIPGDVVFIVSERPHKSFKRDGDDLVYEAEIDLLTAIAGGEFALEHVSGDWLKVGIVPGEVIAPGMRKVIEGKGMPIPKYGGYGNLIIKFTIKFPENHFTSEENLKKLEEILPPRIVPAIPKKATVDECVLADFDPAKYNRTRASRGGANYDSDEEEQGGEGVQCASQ
Kind of series: pull-down.

The target of series [6] is T3, Hsp90Ec wild-type. Description: BLI. A general note: In BLI a coated tip is dipped into the sample, and binding shifts an interference pattern.

Read-outs that look alike come from different tables or passages of the source.

The record followed here is publication PMC10527347 (Journal of molecular biology, 2023).

B1: CbpA A44C (natural protein, E. coli, UniProt P36659 1-306, looked up)
chain: MELKDYYAIMGVKPTDDLKTIKTAYRRLARKYHPDVSKEPDAECRFKEVAEAWEVLSDEQRRAEYDQMWQHRNDPQFNRQFHHGDGQSFNAEDFDDIFSSIFGQHARQSRQRPATRGHDIEIEVAVFLEETLTEHKRTISYNLPVYNAFGMIEQEIPKTLNVKIPAGVGNGQRIRLKGQGTPGENGGPNGDLWLVIHIAPHPLFDIVGQDLEIVVPVSPWEAALGAKVTVPTLKESILLTIPPGSQAGQRLRVKGKGLVSKKQTGDLYAVLKIVMPPKPDENTAALWQQLADAQSSFDPRKDWGKA
As to B1, in the series with Hsp90Ec N347C [1], the binding result was “binds”.

B2: CbpA wild-type (natural protein, E. coli, UniProt P36659 1-306, looked up)
chain: MELKDYYAIMGVKPTDDLKTIKTAYRRLARKYHPDVSKEPDAEARFKEVAEAWEVLSDEQRRAEYDQMWQHRNDPQFNRQFHHGDGQSFNAEDFDDIFSSIFGQHARQSRQRPATRGHDIEIEVAVFLEETLTEHKRTISYNLPVYNAFGMIEQEIPKTLNVKIPAGVGNGQRIRLKGQGTPGENGGPNGDLWLVIHIAPHPLFDIVGQDLEIVVPVSPWEAALGAKVTVPTLKESILLTIPPGSQAGQRLRVKGKGLVSKKQTGDLYAVLKIVMPPKPDENTAALWQQLADAQSSFDPRKDWGKA
On to B2, for which the binding result in the series with Hsp90Ec K199C [2] and with Hsp90Ec wild-type [3] was “binds” throughout.

B3: CbpA S57C (natural protein, E. coli, UniProt P36659 1-306, looked up)
chain: MELKDYYAIMGVKPTDDLKTIKTAYRRLARKYHPDVSKEPDAEARFKEVAEAWEVLCDEQRRAEYDQMWQHRNDPQFNRQFHHGDGQSFNAEDFDDIFSSIFGQHARQSRQRPATRGHDIEIEVAVFLEETLTEHKRTISYNLPVYNAFGMIEQEIPKTLNVKIPAGVGNGQRIRLKGQGTPGENGGPNGDLWLVIHIAPHPLFDIVGQDLEIVVPVSPWEAALGAKVTVPTLKESILLTIPPGSQAGQRLRVKGKGLVSKKQTGDLYAVLKIVMPPKPDENTAALWQQLADAQSSFDPRKDWGKA
For the molecule B3, the binding result with Hsp90Ec N347C [1] is given as “binds”.

B4: CbpA K22C (natural protein, E. coli, UniProt P36659 1-306, looked up)
chain: MELKDYYAIMGVKPTDDLKTICTAYRRLARKYHPDVSKEPDAEARFKEVAEAWEVLSDEQRRAEYDQMWQHRNDPQFNRQFHHGDGQSFNAEDFDDIFSSIFGQHARQSRQRPATRGHDIEIEVAVFLEETLTEHKRTISYNLPVYNAFGMIEQEIPKTLNVKIPAGVGNGQRIRLKGQGTPGENGGPNGDLWLVIHIAPHPLFDIVGQDLEIVVPVSPWEAALGAKVTVPTLKESILLTIPPGSQAGQRLRVKGKGLVSKKQTGDLYAVLKIVMPPKPDENTAALWQQLADAQSSFDPRKDWGKA
Consider B4, for which the binding result in the series with Hsp90Ec K45C, in the series with Hsp90Ec K71C, in the series with Hsp90Ec K99C, with Hsp90Ec K103C, with Hsp90Ec K199C [4] and with Hsp90Ec K354C was “binds” throughout. For the same molecule, the binding result in the series with Hsp90Ec K238C and in the series with Hsp90Ec N347C [1] was “binds” in each case.

B5: CbpA E51C (natural protein, E. coli, UniProt P36659 1-306, looked up)
chain: MELKDYYAIMGVKPTDDLKTIKTAYRRLARKYHPDVSKEPDAEARFKEVACAWEVLSDEQRRAEYDQMWQHRNDPQFNRQFHHGDGQSFNAEDFDDIFSSIFGQHARQSRQRPATRGHDIEIEVAVFLEETLTEHKRTISYNLPVYNAFGMIEQEIPKTLNVKIPAGVGNGQRIRLKGQGTPGENGGPNGDLWLVIHIAPHPLFDIVGQDLEIVVPVSPWEAALGAKVTVPTLKESILLTIPPGSQAGQRLRVKGKGLVSKKQTGDLYAVLKIVMPPKPDENTAALWQQLADAQSSFDPRKDWGKA
Turning to B5, the binding result with Hsp90Ec K199C [2], in the series with Hsp90Ec N347C [5], in the series “cross-linking”, with Hsp90Ec N347C/D80N and with Hsp90Ec N350C was “binds” each time.

B6: Hsp82 wild-type (natural protein)
chain: not shown
Take B6: the “fold change in interaction, with L2 against without L2” value with biotin-labeled Ydj1 was about 2 fold.

B7: biotin-labeled DnaJ (natural protein, E. coli, UniProt P08622 1-376, looked up)
chain: MAKQDYYEILGVSKTAEEREIRKAYKRLAMKYHPDRNQGDKEAEAKFKEIKEAYEVLTDSQKRAAYDQYGHAAFEQGGMGGGGFGGGADFSDIFGDVFGDIFGGGRGRQRAARGADLRYNMELTLEEAVRGVTKEIRIPTLEECDVCHGSGAKPGTQPQTCPTCHGSGQVQMRQGFFAVQQTCPHCQGRGTLIKDPCNKCHGHGRVERSKTLSVKIPAGVDTGDRIRLAGEGEAGEHGAPAGDLYVQVQVKQHPIFEREGNNLYCEVPINFAMAALGGEIEVPTLDGRVKLKVPGETQTGKLFRMRGKGVKSVRGGAQGDLLCRVVVETPVGLNERQKQLLQELQESFGGPTGEHNSPRSKSFFDGVKKFFDDLTR
modifications: biotin label (site not stated)
One may read the Kd as the equilibrium constant for the complex coming apart. High values mean weaker binding, low ones tighter binding. B7 registered a Kd in the series with Hsp90Ec wild-type [6] of 3.6 ± 0.3 µM.
